# Results as given in publication PMC4471001.
# Legend:
# [1] = target: human importin α5 (human) (UniProt P52294); experiment: fluorescence polarisation; S2 Fig D; method not named for this panel, taken as the paper's fluorescence polarization assay; dark and blue light, binding light independent
# [2] = target: human importin α7 (human) (UniProt O60684); experiment: fluorescence polarisation; competition, under blue light (455 nm, 6 mW/cm^2; value read after 2 minutes of illumination); 25 nM TAMRA peptide …, 50 mM Tris pH 7.5, 100 mM NaCl, 1 mM DTT, 25°C; Kd from IC50
# [3] = target: human importin α5 (human) (UniProt P52294); experiment: as above
# [4] = target: human importin α7 (human) (UniProt O60684); experiment: fluorescence polarisation; competition, dark (value read after 5 minutes in absence of light); 25 nM TAMRA peptide …, 50 mM Tris pH 7.5, 100 mM NaCl, 1 mM DTT, 25°C; Kd from IC50
# [5] = target: human importin α5 (human) (UniProt P52294); experiment: as above
# Chain of human importin α5 (human) (P52294 whole entry): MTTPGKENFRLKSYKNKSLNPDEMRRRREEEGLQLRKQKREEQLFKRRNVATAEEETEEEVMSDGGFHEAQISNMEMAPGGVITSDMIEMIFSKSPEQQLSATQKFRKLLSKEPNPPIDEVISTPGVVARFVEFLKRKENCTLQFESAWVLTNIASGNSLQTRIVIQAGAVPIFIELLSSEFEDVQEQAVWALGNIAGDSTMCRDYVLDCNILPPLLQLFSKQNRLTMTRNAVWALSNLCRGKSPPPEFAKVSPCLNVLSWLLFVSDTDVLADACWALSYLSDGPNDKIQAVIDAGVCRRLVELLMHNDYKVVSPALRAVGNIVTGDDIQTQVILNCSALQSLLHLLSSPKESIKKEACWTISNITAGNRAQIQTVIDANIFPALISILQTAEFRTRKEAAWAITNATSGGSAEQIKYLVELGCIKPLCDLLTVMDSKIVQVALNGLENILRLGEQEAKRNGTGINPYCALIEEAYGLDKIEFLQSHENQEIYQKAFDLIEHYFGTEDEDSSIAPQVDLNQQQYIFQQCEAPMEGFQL
Substance,Kd [1] [µM],Kd [2] [µM],Kd [3] [µM],Kd [4] [µM],Kd [5] [µM]
AsLOV2cMyc (from UniProt O49003 404-546),0.001,,,,
AsLOV2cNLS (from UniProt O49003 404-546) (designed binder),,0.34,0.25,2,1.5
